Measurements from patent US20230341395A1 (GEMINA LABORATORIES, published 2023).

Legend:
[1] = molecular target: T1, Recombinant SARS-CoV-2 Nucleocapsid protein antigen (Z03488, Genscript) (SARS-CoV-2, UniProt P0DTC9 1-419); assay: dot blot dipstick, gold nanoparticles with fusion protein and no antibody
T1 construct: also called N protein antigen; Nucleocapsid antigen

[2] = molecular target: T2, Recombinant SARS-CoV-2 Spike protein antigen (Z03501, Genscript) (SARS-CoV-2, UniProt P0DTC2 16-685); assay: as above
T2 construct: also called S antigen; S protein antigen

[3] = molecular target: Monoclonal antibody against the SARS-CoV-2 Nucleocapsid protein (A02039, Genscript)
[4] = molecular target: Monoclonal antibody against the SARS-CoV-2 Spike protein (A02038, Genscript)

B1: Gold-binding fusion protein EMT-003 (Protein G' - linker - gold binding protein) (other)
chain: MTYKLILNGKTLKGETTTEAVDAATAEKVFKQYANDNGVDGEWTYDDATKTFTVTEKPEVIDASELTPAVTTYKLVINGKTLKGETTTEAVDAATAEKVFKQYANDNGVDGEWTYDDATKTFTVTEKPEVIDASELTPAVTTYKLVINGKTLKGETTTKAVDAETAEKAFKQYANDNGVDGVWTYDDATKTFTVTEGGGGSGGGGSGGGGSASGGGMHGKTQATSGTIQSMHGKTQATSGTIQSMHGKTQATSGTIQSMHGKTQATSGTIQSMHGKTQATSGTIQSMHGKTQATSGTIQSMHGKTQATSGTIQS
notes: also called EMT-03; gold fusion protein
- binding result [1]: no binding (tested: 0.5 µg antigen spotted)
- binding result [2]: no binding (tested: 0.5 µg antigen spotted)
- Kd [3]: 0.258 nM
- koff [3]: 0.000149 s⁻¹
- kon [3]: 577000 M⁻¹ s⁻¹
- Kd [4]: 0.192 nM
- koff [4]: 0.000103 s⁻¹
- kon [4]: 537000 M⁻¹ s⁻¹
